Source: patent US20230075979A1

What was measured:
[1] = target: human ACE2 peptidase domain (amino acids 1-615 of human ACE2 with C-terminal His-10 and Avi tags) (human) (UniProt Q9BYF1)
[2] = target: human ACE2 peptidase domain (amino acids 1-615 of human ACE2 with C-terminal His-10 and Avi tags) (human) (UniProt Q9BYF1); experiment: biolayer interferometry (Octet RED384); assumed value, not measured

Chain of UniProt Q9BYF1 (Q9BYF1 18-615 limits assumed): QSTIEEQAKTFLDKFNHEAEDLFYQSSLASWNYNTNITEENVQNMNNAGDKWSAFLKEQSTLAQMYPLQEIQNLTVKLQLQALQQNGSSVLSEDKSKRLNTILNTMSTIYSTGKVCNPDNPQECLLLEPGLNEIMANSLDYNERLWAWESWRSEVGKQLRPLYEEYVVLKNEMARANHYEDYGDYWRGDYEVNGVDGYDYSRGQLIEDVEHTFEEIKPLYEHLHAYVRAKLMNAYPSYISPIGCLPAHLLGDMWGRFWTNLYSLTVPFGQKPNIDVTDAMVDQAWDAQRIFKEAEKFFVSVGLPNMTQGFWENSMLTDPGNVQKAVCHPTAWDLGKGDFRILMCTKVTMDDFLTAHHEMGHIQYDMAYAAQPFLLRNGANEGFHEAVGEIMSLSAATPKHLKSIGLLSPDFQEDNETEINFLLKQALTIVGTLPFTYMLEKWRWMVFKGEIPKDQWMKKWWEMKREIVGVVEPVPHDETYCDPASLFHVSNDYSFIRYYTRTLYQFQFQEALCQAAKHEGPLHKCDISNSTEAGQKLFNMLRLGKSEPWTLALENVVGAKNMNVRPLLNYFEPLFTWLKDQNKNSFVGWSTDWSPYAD

Q: Which Kd [1] does the source give for “RBD-foldon trimer (trimerised SARS-CoV-2 spike receptor-binding domain fused to the T4 fibritin fold (other; other documents disagree on this pair)” here?
A: 5 pM

Q: And the koff [2]?
A: < 1e-06 s⁻¹
